Measurements reported in the supplement of paper PMC9170038.

Tested on: K4 kissing-loop RNA reporter
Assay: apparent KD of K4 kissing-loop reporter; higher = weaker reporter binding
Conditions: Eterna round: R107
Protocol: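 RNA-MaP round R107: designed RNA switches with theophylline, tryptophan, arginine or FMN aptamers are transcribed on-chip within common flanks. They are titrated with a labelled K4 kissing-loop RNA reporter in RNA-MaP buffer (100 mM Tris pH 7.5, 80 mM KCl, 4 mM MgCl2), without ligand or with the indicated ligand. Median apparent KD per design.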

[1] = input ligand: theophylline 20 uM
[2] = input ligand: tryptophan 2.4 mM
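Note: bound reporter read as fluorescence of individual clusters on recovered sequencing chips by microscopy, with normalized cluster intensities fitted with a binding model.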

| Sequence | apparent KD of K4 kissing-loop reporter (input ligand: FMN 200 uM) | apparent KD of K4 kissing-loop reporter (input ligand: arginine 13.2 mM) | apparent KD of K4 kissing-loop reporter (input ligand: none) | apparent KD of K4 kissing-loop reporter [1] | apparent KD of K4 kissing-loop reporter [2] |
| --- | --- | --- | --- | --- | --- |
| AAACAUUGGUGCGAUACCAGCUGAUCGGAAACGAUCUUGCUGGAGUGAUGUUCCAAGUAAAGCCCUUGGCAGCGCACCGAUGAAA [MAT - Same State Theophlline B - Mod of Eli - D21] | 135 nM | 31.7 nM | 91.5 nM | 72 nM | 75.7 nM |
| AAAGCUCUAUAGAGCAAGAGGUCAACUGAUACCAGAGGCUAUAGCCUCCCUUGGCAGCGGAACGAGUGAUGUUCGAGACCUCAAA [AK6.1 SS Theophylline A] | 1410 nM | 1120 nM | 1610 nM | 939 nM | 1130 nM |
| AAAGCUUGGAUGGACGUUAGCGACGGAGAAGGAGCGCACGGAAGUGCAGGUAGGUCGCUCCGAGUGAUGUUCGUGAGUGAUUGCU [Ditienti] | 229 nM | 329 nM | 385 nM | 252 nM | 301 nM |
| AAAGGCAAAGCCCGAGUGAUGUUCGACGAUACCAGCCUCGAUAGAGGCCCUUGGCAGCGUAAAUGAUCACAAAGCCAAGGAAUAA [#OpenEnded 2 #StaticStem] | 310 nM | 244 nM | 268 nM | 248 nM | 261 nM |
| AAAGGUUGAAGUGAUACCAGACUAGCAGUGAUGUUGCGCCAAAGUGAGUGAUGUUCACCAGUCCCUUGGCAGCACAUGCCUAAAG [Same State Theophylline B GF 13] | 985 nM | 890 nM | 1210 nM | 1310 nM | 811 nM |
| AAAGUUGAAAGUGAUACCAGACGAGUGAAGGGAAGAAAUUAAUUUGGAGUGAUGUUCCGCGUCCCUUGGCAGCACUUUGUAAUUU [Exclusion Theophylline B GF 23] | 123 nM | 150 nM | 142 nM | 174 nM | 107 nM |
| AAAGUUGAUGAGUUGGGUAUGUGUUCCGAAGGAGCGAGAUUUAUCUCAGGUAGGUCGCGGAACUUGAGUGAUGUUCAUGUAUAAA [KL-XArg-A9 #analogue] | 356 nM | 408 nM | 491 nM | 637 nM | 305 nM |
| AAAUAAAGCAGUCACCCAGUGAUGUUGGAAGGAGCGUGCGAAAGCACAGGUAGGUCGCCAAAAUAAAAGUGGCUGCGGCAAAGCC [#SwitchBubble 24 #K4Early] | 627 nM | 283 nM | 492 nM | 338 nM | 222 nM |
| AAAUAGAUCAGUCAACCAGUGAUGUUGGAAGGAGCGUGCGAAAGCACAGGUAGGUCGCCAGAAUAAAAUUGGCUGAUCAAAAUAA | 328 nM | 338 nM | 333 nM | 408 nM | 185 nM |
| AAAUAGGAGUAAAUAAACAAUUUCCUUAGAGAGGAUAUUGGUAAUACAAGAAGGCUCUGUUGGGAGUGAUGUUCCCAUAACGCCU [Exclusion FMN A GF13] | 58.3 nM | 66.6 nM | 56.6 nM | 65.9 nM | 56.7 nM |
| AAAUAUAGUGAUGUUAUAUAUAUAUGUGAUACCAGAGAAAAGAAACUCCCUUGGCAGCACGAGAGAGAAUUUUUUUUUUAUAUAU [AstrosSSTheA#2] | 370 nM | 409 nM | 498 nM | 471 nM | 328 nM |
| AAAUCGUUCAGAAGGAGCGUGGAUUAUUCUUAUAUAUUUAUUACGAGUGAUGUUCGUAAUUCACAGGUAGGUCGCUGAUCGAUAA [JR_ExcArginiB_Sub004] | 106 nM | 126 nM | 112 nM | 130 nM | 108 nM |
| AAAUGAAGGGCUCGCAGUGAUGUUGCGAGACGAGGACCGGUACGGCCGCCACUCGGCCGCUACUUUGACUCGGGCUUUAAGCUAC [Usarusteer] | 148 nM | 139 nM | 145 nM | 140 nM | 138 nM |
| AAAUGUAUCUGAAGGAGCGUGAAAUAAUAUUAGACAUAAUAGCCCAGUGAUGUUGGGUUAUCACAGGUAGGUCGCAGAUGUAUAA [Same State Arginie B GF 26] | 112 nM | 108 nM | 105 nM | 125 nM | 106 nM |
| AAAUUUAAUAUAUUUAAAUAAAUAUGUGAUACCAGACAUUUAUAAGUCCCUUGGCAGCACAUUGCAGUGAUGUUGCUUAUAAUAA [JR_SSTheophyA_Sub016] | 72.7 nM | 80.9 nM | 89.7 nM | 145 nM | 76.5 nM |
| AAAUUUAAUAUAUUUAAUUAAUUAUGUGAUACCAGACAUUUAUAAGUCCCUUGGCAGCACAAUGCAGUGAUGUUGCAUAUAAUAA [JR_SSTheophyA_Sub012] | 64.3 nM | 103 nM | 82.1 nM | 77.5 nM | 67.5 nM |
| AAAUUUAUAUUAGAUACCAGUAUUUUGAAUGUUUAUUAUGACAAGAGUGAUGUUCUUGUAUGCCCUUGGCAGCUGGUAUGGGUUU [KL-XTheo-B23] | 116 nM | 111 nM | 111 nM | 113 nM | 115 nM |
| AAAUUUGCCACUGAUACCAGCCAGUGAUGUUGGCGGUAGUUCUAUGGUACCAUACAUUGUGGCCCUUGGCAGCAGGGCACAGAGC [Raxeisra] | 115 nM | 99.8 nM | 92.7 nM | 115 nM | 113 nM |
| AACACUCAACGGAGUGAUGUUCUGGAAAACCGAGGACCGGUACGGCCGCCACUCGGAAAUGAGUGAGUCCUACGAAAAGUAGGAC [Omei inspired 2] | 160 nM | 161 nM | 150 nM | 157 nM | 125 nM |
| AACCAGCUUACUGUAAGCUGGUUGCUGGAUACCAGCUCGGAAACGAGCCCUUGGCAGCCAGAACUUGCAGUGAUGUUGCAAGUAA [Design11] | 150 nM | 178 nM | 157 nM | 120 nM | 216 nM |
| AACCUGACGACGAGUGAUGUUCGAUGGGAAGGAGCGCGAAGAAAUGCAGGUAGGUCGCCCUAAGAGAGUGUAACGUCAGGAUUAU [1.)] | 364 nM | 303 nM | 286 nM | 348 nM | 191 nM |
| AACGCCACCGCGGAUACCAGAGCCAGUGAUGUUGGAUCUGGAAAUUCGUGGGUAAGCUGGCUCCCUUGGCAGCUGCGGUUCUUUU [Tiisaron] | 134 nM | 112 nM | 114 nM | 131 nM | 109 nM |

| Sequence | apparent KD of K4 kissing-loop reporter (input ligand: FMN 200 uM) | apparent KD of K4 kissing-loop reporter (input ligand: arginine 13.2 mM) | apparent KD of K4 kissing-loop reporter (input ligand: none) | apparent KD of K4 kissing-loop reporter [1] | apparent KD of K4 kissing-loop reporter [2] |
| --- | --- | --- | --- | --- | --- |
| AACGGCCAGUCGGCCGCCACUCCAAGCAGUGAUGUUGCUAAGUUUCUAAAAGAGUGAUGUUCUUAGAGGACCGGGACUGAUGUAA [Exclusion Tryptophan B Gf 6] | 130 nM | 155 nM | 154 nM | 161 nM | 104 nM |
| AACGUUUUGUGAAGGAGCGCGAAAAGCAGUGAUGUUGCUUACUUACAAUUUAGAUUUAACACGCAGGUAGGUCGCACAAUACGUA [JR_SSArginiB_Sub016] | 252 nM | 225 nM | 266 nM | 259 nM | 219 nM |
| AACGUUUUGUGAAGGAGCGCGAUAAGCAGUGAUGUUGCUUACUAUCAAUUUAUAUUUUACACGCAGGUAGGUCGCACAAUACGUA [JR_SSArginiB_Sub018] | 159 nM | 135 nM | 160 nM | 148 nM | 163 nM |
| AACUGGGUUCGUGAUACCAGCUCACACAUGAGUGAUGUUCAUGUAGUGGGUAAAAUGUGGAGCCCUUGGCAGCACUGUGACCACG [XTheo-B1] | 91.5 nM | 76.4 nM | 81.2 nM | 67.5 nM | 81.3 nM |
| AACUGUCAAGGACAACAUUACUGAAGUGAUACCAGCAUCGAAAGAUGCCCUUGGCAGCACUAACUUGCAGUGAUGUUGCAAGUAA [BrourdMod 3 - Jieux - Exclusion - Theophylline A] | 207 nM | 165 nM | 184 nM | 202 nM | 190 nM |
| AACUGUCAAGGACAACAUUACUGGAGUGAUACCAGCAUCGAAAGAUGCCCUUGGCAGCACUAACUUGCAGUGAUGUUGCAAGUAA [BrourdMod 6 - Jieux - Exclusion - Theophylline A] | 208 nM | 174 nM | 196 nM | 192 nM | 191 nM |
| AACUUUUAAUGAAUUACAUUUUAUUUAUCUCGAGGACCGGUACGGCCGCCACUCGUACUAUAGUGAUGUUAUAGAUAAGUCCUAA [JR_ExcTryptoA_Sub019] | 149 nM | 212 nM | 179 nM | 233 nM | 73.8 nM |
| AACUUUUAAUGAAUUACAUUUUAUUUUUCUCGAGGACCGGUACGGCCGCCACUCGUACUAUAGUGAUGUUAUAGAUAAGUCCUAA [JR_ExcTryptoA_Sub020] | 124 nM | 182 nM | 142 nM | 179 nM | 68.7 nM |
| AAGAAGAAUGGAAGGAGCGAGCAGAUAUAACCAGUGAUGUUGGAAAGCCUUAUUGCUUAAGCUCAGGUAGGUCGCCAAGAAGAGA [whbob_Ex_Arginine_B_2t152] | 179 nM | 159 nM | 179 nM | 192 nM | 184 nM |
| AAGAAGGUCAAAGACCUUCGUGCACGUGAUACCAGUCGCGAAAGCGACCCUUGGCAGCACGGCAGUGAUGUUGCCAAGUGCACAA [#12 K4 Theophylline A Same State] | 407 nM | 249 nM | 498 nM | 664 nM | 545 nM |
| AAGAGCUAGGCGGCCGCCACUAGAUGUGAACACAUACAAGCCAGUGAUGUUGGUAUGAUGGACAGUAGGACCGGGCCUAGCUGAA [Exclusion - Tryptophan B (Freestyle 9)] | 353 nM | 377 nM | 407 nM | 368 nM | 421 nM |
| AAGAGCUAGGCGGCCGCCACUAGAUGUGAACACAUACAAGCCAGUGAUGUUGGUAUGAUGGACGGUAGGACCGGGCCUAGCUGAA [Exclusion - Tryptophan B (Freestyle 12)] | 290 nM | 464 nM | 394 nM | 381 nM | 294 nM |
| AAGAGGACCAACAUCACUAGUCCUCGAAUACGAGGACCGGUACGGCCGCCACUCGAUAACUUGCAGUGAUGUUGCAAGUAAGAAU [(T)''-(K)'-(T)'-(T1)-(T2)-(K1)-(K2)_Design3] | 369 nM | 253 nM | 307 nM | 345 nM | 439 nM |
| AAGAGUAAACUCUAACUCCUUAAGUCCGAAGGAGCGACUCAAUGGUCAGGUAGGUCGCGGACAAUCCUAGUGAUGUUAGGAUCUG [Arg A SS t5] | 252 nM | 220 nM | 268 nM | 260 nM | 211 nM |
| AAGCAGUCACUCGAAACCAUCGAAGAUGGACGAGGACCGGUACGGCCGCCACUCGGAGUGAUGUUCCGAAGACUGCAAAAUAAAA | 373 nM | 374 nM | 374 nM | 434 nM | 370 nM |
| AAGCAGUCACUCGAAUCCAUCGAAGAUGGGCGAGGACCGGUACGGCCGCCACUCGGAGUGAUGUUCCGAAGACUGCAAAAUAAAA | 262 nM | 264 nM | 419 nM | 786 nM | 378 nM |
| AAGCAGUCACUCGUAGCCAUCGAAGAUGGUCGAGGACCGGUACGGCCGCCACUCGGAGUGAUGUUCCGAAGACUGCAAAAUAAAA | 272 nM | 313 nM | 337 nM | 378 nM | 364 nM |
| AAGCAGUCUCUUGUAAUCAUCGAAGAUGAACGAGGACCGGUACGGCCGCCACUCGGAGUGAUGUUCCGAAGACUGCAAAAUAAAA [MatMod 16 - Jieux - Exclusion - Tryptophan A] | 650 nM | 494 nM | 676 nM | 873 nM | 219 nM |
| AAGCAUUCUUCGGAAUGCAGACCCGCUGAGGAGGAUAUGACGAAAGUCAGAAGGUCUCAGUGAUGUUGAGGCCUCCUCAAUGGUC [whbob_Ex_FMNA__2th181] | 212 nM | 160 nM | 155 nM | 160 nM | 162 nM |
| AAGCAUUCUUCGGAUUGCAGACCCGCUGAGGAGGAUAUGACGAAAGUCAGAAGGUUUCAGUGAUGUUGAGGCCUCCUCAAUGGUC [whbob_Ex_FMNA__2th183] | 280 nM | 259 nM | 250 nM | 255 nM | 263 nM |
| AAGCCAGUGAUGUUGGCAAAAUUUACUGAAGGAGCGCGUGAAAACGCAGGUAGGUCGCAGAACCUUGCCAACUAACACGAAAGUG [Ex Arginine A K4 20] | 261 nM | 237 nM | 253 nM | 469 nM | 251 nM |
